Measurements taken from paper PMC3699631, “Posttranslational Modifications of the Histone 3 Tail and Their Impact on the Activity of Histone Lysine Demethylases In Vitro” (PLoS ONE, 2013).
Entries after “also recorded” stand apart in the source; their conditions may differ.

Target: T1, human FL-KDM4C (Homo sapiens, UniProt Q9H3R0)
T1 construct: along with the full length FL- KDM4C and FL-KDM4A using various synthetic histone tail peptides as substrates; His6 (N); FLAG (N); made in house; host or cells: High Five (Trichoplusia ni) insect cells, baculovirus
T1 sequence (Q9H3R0 1-1056): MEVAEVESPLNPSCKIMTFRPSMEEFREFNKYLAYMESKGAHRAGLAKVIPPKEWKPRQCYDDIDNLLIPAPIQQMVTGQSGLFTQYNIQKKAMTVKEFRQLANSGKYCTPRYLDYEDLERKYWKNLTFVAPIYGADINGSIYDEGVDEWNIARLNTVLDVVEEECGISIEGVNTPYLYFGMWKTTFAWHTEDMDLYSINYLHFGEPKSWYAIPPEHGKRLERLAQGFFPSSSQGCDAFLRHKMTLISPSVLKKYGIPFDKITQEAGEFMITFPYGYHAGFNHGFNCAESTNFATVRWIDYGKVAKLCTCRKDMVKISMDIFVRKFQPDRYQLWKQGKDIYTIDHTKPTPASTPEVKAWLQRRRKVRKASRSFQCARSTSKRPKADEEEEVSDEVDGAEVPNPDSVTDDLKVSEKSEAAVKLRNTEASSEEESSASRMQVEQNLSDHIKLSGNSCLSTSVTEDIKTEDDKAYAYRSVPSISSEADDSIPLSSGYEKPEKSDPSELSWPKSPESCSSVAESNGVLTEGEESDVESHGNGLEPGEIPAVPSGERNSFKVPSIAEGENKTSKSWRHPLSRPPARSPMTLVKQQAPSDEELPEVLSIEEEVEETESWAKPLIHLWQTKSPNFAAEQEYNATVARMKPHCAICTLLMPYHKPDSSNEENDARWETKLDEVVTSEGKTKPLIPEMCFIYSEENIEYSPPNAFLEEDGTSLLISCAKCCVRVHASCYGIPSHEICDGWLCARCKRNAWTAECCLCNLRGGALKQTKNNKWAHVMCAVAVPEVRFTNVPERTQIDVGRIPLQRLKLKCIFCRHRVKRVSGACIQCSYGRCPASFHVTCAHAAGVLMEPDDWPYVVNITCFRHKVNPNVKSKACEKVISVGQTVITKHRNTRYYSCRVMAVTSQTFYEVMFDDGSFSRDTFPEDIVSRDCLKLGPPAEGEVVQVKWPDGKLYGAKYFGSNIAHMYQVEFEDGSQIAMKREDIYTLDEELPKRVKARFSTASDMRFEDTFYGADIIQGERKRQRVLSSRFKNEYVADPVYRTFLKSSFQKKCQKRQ
Assay: FDH-assay enzyme kinetics of H3 peptide demethylation, full length KDM4C
Type: biochemical
Set-up: key to K m / k cat / k cat /K m: 0 means no demethylation could be detected
Details: for demethylation / catalytic activity (in words) / K m / k cat / k cat /K m: FDH-assay; for K m: 50 mM HEPES (pH 7.5), 50 mM NaCl, 50 µM FeSO4, 500 µM α-KG, 500 µM ascorbate, 2 mM NAD, substrate 10–1000 µM, NADH fluorescence 15–30 minutes; for K m / k cat: triplicate; for k cat: pH 7.5, NADH fluorescence; for k cat /K m: pH 7.5, triplicate
Procedure: The enzyme kinetics were measured using a Formaldehyde DeHydrogenase Assay (FDH-Assay) and the demethylation of substrates was confirmed when possible by MALDI-TOF-MS, see File S1 for details. The test solution contained 50 mM HEPES (pH 7.5), 50 mM NaCl, 50 µM FeSO4, 500 µM α-KG, 500 µM ascorbate, 2 mM NAD, approximately 0.05 unit of FDH and e.g. 4.88 µM KDM4C (enzyme concentration varied between batches). The reference solution was comprised of the same except substrate. The assay was initiated by adding various concentrations of H3 peptide substrates e.g. H3(1–24)K9me3 (10–1000 µM) and the increase in NADH fluorescence was measured over 15–30 minutes in 30 second intervals. Data analysis and kinetic values were obtained using programs Excel and GraphPad Prism® 5.0. For details, see File S1.
The standard deviations for k cat/K m were calculated using the statistic law of propagation of errors. Standard errors for Michaelis-Menten Kinetics were automatically given in GraphPad Prism®, with a 95% confidence interval. All enzyme kinetic curves were done in triplicate unless otherwise stated.
Test for activity of enzyme using the fluorescence FDH assay, determination of Vmax and Km of enzymes with substrate, expression and purification of cc-KDM4A and cc-KDM4C software and parameters for the FDH coupled assay, see Lohse et al.^21
Recombinant baculoviridae encoding the full Open Reading Frame (ORF) of FL-KDM4A and FL-KDM4C were generously donated from the Biotech Research and Innovation Centre (BRIC), University of Copenhagen, Denmark. Recombinant protein was expressed by adding High Titer Stocks to High Five (Trichopulsia ni) insect cells in suspension culture. The cell cultures were harvested by centrifugation after ~ 60 hours and the cells were resuspended in hypotonic buffer (25 mM Hepes-KOH, pH 7.7, 1.5 mM MgCl, 5 mM KCl) supplemented with one protease inhibitor cocktail tablet per 500 ml expression (Roche, EDTA-free). The resuspended cells were frozen at -20 °C.
Both proteins were purified by IMAC using Talon FF (Clontech) cobalt resin according to the following protocol; resuspended cells were thawed on ice, 100 ml hypotonic buffer was added per 500 ml expression volume and the cells were incubated with stirring for 30 min. at 4 °C, followed by a brief (30 s per 500 ml culture volume) sonication. β-mercaptoethanol (BME, 2 mM final concentration), Triton X-100 (0.2 % final concentration) and NaCl (300 mM final concentration) were added and the cell suspension was stirred for another 30 min at 4 °C. The lysate was cleared by centrifugation at 50.000 g for 60 minutes. The cleared lysates were adjusted to 5 mM imidazole and incubated with Talon resin (1 ml /500 ml expression) for 60 minutes. The resin was allowed to sediment, the lysate removed and the resin was transferred to PD-10 gravity flow columns (GE Healthcare). The resin was washed with 10 column volumes of binding buffer (50 mM Hepes-KOH, pH 7.7, 300 mM NaCl, 5 mM imidazole, 10% glycerol, 0.05 % Triton X-100, 2 mM BME) and eluted with 2 x 2.5 ml elution buffer (50 mM Hepes-KOH, pH 7.7, 300 mM NaCl, 100 mM imidazole, 10 % glycerol, 0.05 % Triton X-100, 2 mM BME). Each eluted fraction has its buffer changed to 50 mM Hepes pH 7.5, 300 mM NaCl, 10 % glycerol using a PD-10 desalting column. The protein was concentrated to 6-7 mg/ml (FL-KDM4A) or 10-12 mg/ml (FL-KDM4C). Despite the buffer change it is likely that small amounts of Triton X-100 remained in the protein samples. Triton X-100 has a significant absorbance at 280 nm, so the protein concentration was determined by Bradford assay using a BSA standard curve. The protein purity was approximately 70 % as judged from SDS-PAGE. The concentrated protein was aliquoted and stored at -80 °C until assays were performed.
The standard deviations for kcat/ Km were calculated using the statistic law of propagation of errors. […]

[1] = SD by propagation of errors, unit: (min^−1 * µM^−1) * 10^3

Substance	demethylation / catalytic activity (in words)	K m	k cat	k cat /K m [1]	fold increase in k cat/K m (compared to H3(1–24)K9me3) [fold]	k cat /K m (figures) [min^-1 * μM^-1 * 10^3]	demethylation / catalytic activity (in words) (listed as H3K9me3)
H3(1–24)K4me3K9me3: bis-tri-methylated substrate, trimethylated K4 in combination with H3K9me3	a small difference in activity between H3(1–24)K9me3 and H3(1–24)K4me3-K9me3	42±3	1.1±0.2	24±3	2	24 ± 3	–
H3(1–24)K9me2: truncated histone tail, 24 first amino acids from the N-terminus of H3, dimethylated lysine 9	–	79±10	–	1.3±0.2	–	2 ± 0.4	–
H3(1–24)K9me3: truncated histone tail, 24 first amino acids from the N-terminus of H3, trimethylated lysine 9; control peptide	–	57±5	0.7±0.1	12±2	–	12 ± 2	preference for the H3K9me3 over the H3K9me2; also recorded: an order of magnitude higher activity towards trimethylated H3K9me3 compared to dimethylated H3K9me2 substrates
H3(1–24)K9me3T11(ph): H3(1–24)K9me3 with phosphorylation of threonine 11	no detectable turnover	0	0	0	–	–	–
